Measured values published in patent US20050048600A1.

Molecular target: human LH3 protein with His-tag at the amino-terminus, produced in Sf9 cells (human) (UniProt O60568)
Assay: cell-based or functional assay

Sequence of human LH3 protein with His-tag at the amino-terminus, produced in Sf9 cells (human) (O60568 25-738): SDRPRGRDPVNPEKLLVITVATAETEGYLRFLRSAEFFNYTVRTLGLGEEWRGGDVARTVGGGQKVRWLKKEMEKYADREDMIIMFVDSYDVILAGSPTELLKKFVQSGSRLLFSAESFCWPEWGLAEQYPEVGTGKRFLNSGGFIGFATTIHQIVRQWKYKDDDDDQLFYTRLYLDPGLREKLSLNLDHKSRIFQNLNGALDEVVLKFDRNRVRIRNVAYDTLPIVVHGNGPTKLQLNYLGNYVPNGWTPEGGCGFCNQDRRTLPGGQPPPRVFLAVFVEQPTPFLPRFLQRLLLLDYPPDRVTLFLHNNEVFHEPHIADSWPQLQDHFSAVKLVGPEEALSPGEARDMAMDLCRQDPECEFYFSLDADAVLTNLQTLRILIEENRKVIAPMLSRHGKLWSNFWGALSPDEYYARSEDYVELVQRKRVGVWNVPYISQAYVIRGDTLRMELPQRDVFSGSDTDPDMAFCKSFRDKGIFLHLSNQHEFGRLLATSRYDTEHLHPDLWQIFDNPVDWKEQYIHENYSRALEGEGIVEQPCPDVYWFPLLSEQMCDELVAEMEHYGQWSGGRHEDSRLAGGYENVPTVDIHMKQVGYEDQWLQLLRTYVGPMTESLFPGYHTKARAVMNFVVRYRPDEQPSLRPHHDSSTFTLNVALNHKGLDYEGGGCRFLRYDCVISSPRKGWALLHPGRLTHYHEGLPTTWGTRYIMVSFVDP

GGT activity in the presence of antibody (% of activity with nonimmune serum): 100%
Substance: monoclonal antibodies against His-tag (Clontech) (antibody)
